Key:
[1] = test system: recombinant His6-RFLAT-1 (C-terminal portion of RFLAT-1, amino acids 59-288)
[2] = biological target: RFLAT-1 full length (homo sapien) (UniProt Q9Y2Y9); experiment: cell_activity; settings: Jurkat T cells
RFLAT-1 full length (homo sapien), sequence (Q9Y2Y9 other isoform, or with tags, fused parts or gaps): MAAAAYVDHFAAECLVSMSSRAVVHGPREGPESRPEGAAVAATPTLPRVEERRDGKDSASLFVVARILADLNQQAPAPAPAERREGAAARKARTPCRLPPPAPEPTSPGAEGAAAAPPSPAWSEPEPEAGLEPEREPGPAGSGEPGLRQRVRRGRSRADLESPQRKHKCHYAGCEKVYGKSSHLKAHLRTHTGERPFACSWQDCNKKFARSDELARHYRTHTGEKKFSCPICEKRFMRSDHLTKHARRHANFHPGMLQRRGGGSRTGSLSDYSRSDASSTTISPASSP

recombinant His6-RFLAT-1 (C-terminal portion of RFLAT-1, amino acids 59-288), sequence (chain, as listed by the source): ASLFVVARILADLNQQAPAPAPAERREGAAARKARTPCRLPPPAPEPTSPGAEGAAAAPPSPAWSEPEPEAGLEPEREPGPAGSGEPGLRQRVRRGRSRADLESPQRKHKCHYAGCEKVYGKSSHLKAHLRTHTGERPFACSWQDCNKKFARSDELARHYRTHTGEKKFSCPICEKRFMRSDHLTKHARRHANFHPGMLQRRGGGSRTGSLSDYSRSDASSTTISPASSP

For NILK, the “phosphorylation of recombinant RFLAT-1 by immunoprecipitated kinase” value [1] was “the immunoprecipitated NILK from activated PBLs phosphorylates recombinant RFLAT-1”.

For three A/B sites luciferase reporter, the activity (fold induction) ([2]; similar degree of induction) was 10.

For RANTES promoter pGL2-R-luciferase, the activity (fold induction) ([2]; about 5 fold in NIH3T3) was 10.

— patent US6376240
